# ± gives the standard deviation of the averaged measurements.
# Test system: Saccharomyces cerevisiae
# Assay: protein stability index of tFT-peptide fusion (C-terminal peptide) (PSI (0-1 scale)); higher = more stable (slower turnover)
# Settings: genetic background: wild type; temperature: 30 C
# 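Also: PSI is a weighted mean of sequencing reads over stability bins, variants kept only with over 10 reads, mCherry proximal and sfGFP distal, peptide attached via GGGS linker.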
row,Sequence,protein stability index
1,PPLLLRFLTIHL,0.571 ± 0.027
2,PPLLPLLCPHSL,0.738 ± 0.016
3,PPLLPTPRPPPP,0.65 ± 0.037
4,PPLLRSPPPLSP,0.675 ± 0.022
5,PPLNPHPPAPTP,0.724 ± 0.032
6,PPLPAPPPPFPP,0.59 ± 0.022
7,PPLPFARAPHCP,0.732 ± 0.059
8,PPLPHQPSHPIS,0.672 ± 0.053
9,PPLPLPPPHPPP,0.503 ± 0.047
10,PPLPPLPLPNPP,0.676 ± 0.064
11,PPLPPLPSPLPL,0.674 ± 0.014
12,PPLPPLRPIRSP,0.702 ± 0.035
13,PPLPPPLLPSSS,0.711 ± 0.12
14,PPLPPPLSLPPP,0.657 ± 0.06
15,PPLPPPPPPFPP,0.5534 ± 0.0012
16,PPLPPPSVPPPC,0.716 ± 0.012
17,PPLPPSLPGSSL,0.642 ± 0.053
18,PPLPPSPRLLPP,0.635 ± 0.056
19,PPLPRPSLPPLP,0.676 ± 0.054
20,PPLPSFILSPRA,0.705 ± 0.027
21,PPLPSGLHPTLT,0.6932 ± 0.0052
22,PPLPSTAPPSPL,0.735 ± 0.0096
23,PPLPTPPPPPDP,0.662 ± 0.052

row,Sequence,protein stability index
1,PPLRFFPPVSSH,0.667 ± 0.014
2,PPLRPPPLHPPR,0.705 ± 0.036
3,PPLRPPPPPPPP,0.668 ± 0.072
4,PPLRPRCSPAPR,0.706 ± 0.01
5,PPLRQLTIPLTH,0.723 ± 0.0088
6,PPLSPPPLPAAP,0.724 ± 0.03
7,PPLSPPPSASSS,0.738 ± 0.065
8,PPLSSPPSLSPP,0.703 ± 0.049
9,PPLTSSPPFSPP,0.728 ± 0.09
10,PPLYPPPRDLPP,0.5453 ± 0.0038
11,PPNPLHPPPSRP,0.653 ± 0.044
12,PPNPPPNPPSRY,0.738 ± 0.047
13,PPPALVPRPPPR,0.679 ± 0.0084
14,PPPAPPCFAPFP,0.673 ± 0.019
15,PPPAPPPLPTSP,0.771 ± 0.095
16,PPPAPPPPHSLV,0.717 ± 0.057
17,PPPDPPLHHNLP,0.693 ± 0.036
18,PPPFPPPSFASR,0.696 ± 0.057
19,PPPFPYRTALLP,0.708 ± 0.016
20,PPPGAPAPPPSS,0.692 ± 0.12
21,PPPGCRPSPPLP,0.683 ± 0.069
22,PPPGLPPPLPPS,0.767 ± 0.015
23,PPPGRRRLRGPT,0.705 ± 0.04

row,Sequence,protein stability index
1,PPPHPPPPASPP,0.653 ± 0.034
2,PPPHPSPSRRSS,0.681 ± 0.029
3,PPPHVPPPPSSL,0.711 ± 0.023
4,PPPIYTPPPPPL,0.697 ± 0.053
5,PPPKRTPTPQCP,0.702 ± 0.078
6,PPPLAPPTSLRF,0.715 ± 0.075
7,PPPLFPPSSLLP,0.706 ± 0.033
8,PPPLLSAPPHCE,0.684 ± 0.052
9,PPPLPLLPSSPL,0.685 ± 0.013
10,PPPLPLPSPPPS,0.664 ± 0.08
11,PPPLPPAPPSPP,0.703 ± 0.19
12,PPPLPPLPPPTL,0.698 ± 0.045
13,PPPLPPPLILTP,0.643 ± 0.054
14,PPPLPPPPAPPY,0.734 ± 0.018
15,PPPLPPPPASPP,0.685 ± 0.01
16,PPPLPPPTPLSP,0.5736 ± 0.0043
17,PPPLPPQTLTFC,0.729 ± 0.075
18,PPPLPSAPPTGT,0.706 ± 0.026
19,PPPLPSPPPRLP,0.693 ± 0.014
20,PPPLRFLSFPPS,0.661 ± 0.057
21,PPPLRPPPPPLP,0.645 ± 0.021
22,PPPLSCPSRPSL,0.526 ± 0.12
23,PPPLSFPSVYLT,0.75 ± 0.12

row,Sequence,protein stability index
1,PPPLSPSFIPPP,0.698 ± 0.042
2,PPPLTPPTCLPP,0.644 ± 0.013
3,PPPMSVAVFPFG,0.678 ± 0.03
4,PPPNSPPRPPLS,0.7035 ± 0.0046
5,PPPPALIHSRPP,0.7406 ± 0.0045
6,PPPPARSPLTPL,0.725 ± 0.15
7,PPPPDLPYPLPL,0.754 ± 0.025
8,PPPPFLPVLLFP,0.696 ± 0.08
9,PPPPFPPPPPHS,0.719 ± 0.039
10,PPPPGPPPPSSL,0.6914 ± 0.006
11,PPPPLCPPPLSF,0.638 ± 0.016
12,PPPPLPAPLSPA,0.651 ± 0.021
13,PPPPLRPHHLTS,0.696 ± 0.021
14,PPPPLRSPPRSF,0.713 ± 0.02
15,PPPPLSPPPAPA,0.682 ± 0.048
16,PPPPPAPLLLLP,0.78 ± 0.1
17,PPPPPAPPPVSI,0.659 ± 0.071
18,PPPPPASTPASS,0.6808 ± 0.0013
19,PPPPPHALSPPP,0.664 ± 0.011
20,PPPPPHTSPSPT,0.744 ± 0.042
21,PPPPPLGPLPAL,0.688 ± 0.012
22,PPPPPLLPPPPA,0.721 ± 0.02
23,PPPPPLLPPSLR,0.671 ± 0.073

row,Sequence,protein stability index
1,PPPPPLPALPHL,0.627 ± 0.023
2,PPPPPLPHPVPP,0.6206 ± 0.005
3,PPPPPLPPPPSP,0.656 ± 0.052
4,PPPPPLPPPTPP,0.568 ± 0.024
5,PPPPPLPRALST,0.72 ± 0.044
6,PPPPPLQRFPPF,0.644 ± 0.046
7,PPPPPLSLPPPA,0.693 ± 0.024
8,PPPPPLSPPPRP,0.68631 ± 0.00031
9,PPPPPLSSPPSP,0.652 ± 0.049
10,PPPPPPAASSSP,0.692 ± 0.047
11,PPPPPPFLPRLP,0.721 ± 0.14
12,PPPPPPFPSSPP,0.698 ± 0.013
13,PPPPPPLSPPSP,0.659 ± 0.012
14,PPPPPPPPAPPS,0.68 ± 0.035
15,PPPPPPPPPCHL,0.644 ± 0.078
16,PPPPPPPPPDPA,0.666 ± 0.013
17,PPPPPPPPPLFP,0.703 ± 0.022
18,PPPPPPPPPSFP,0.65 ± 0.0086
19,PPPPPPPPRLTF,0.698 ± 0.094
20,PPPPPPSPHPPL,0.709 ± 0.01
21,PPPPPPSPPPPP,0.713 ± 0.038
22,PPPPPPTPDPLA,0.666 ± 0.048
23,PPPPPRPPPPAP,0.5949 ± 0.0051

row,Sequence,protein stability index
1,PPPPPRPPRLLS,0.651 ± 0.1
2,PPPPPSPDSNLF,0.733 ± 0.067
3,PPPPPSPLPPRP,0.624 ± 0.045
4,PPPPPSPRALLP,0.657 ± 0.028
5,PPPPPVLPPRPP,0.713 ± 0.075
6,PPPPRHPAAAPP,0.7668 ± 0.0075
7,PPPPRSPPLPRL,0.743 ± 0.061
8,PPPPRSPSLLSP,0.651 ± 0.059
9,PPPPTPPPHSPP,0.656 ± 0.022
10,PPPPTPPPRTSP,0.739 ± 0.063
11,PPPPVFPQPTPA,0.6425 ± 0.0023
12,PPPPVPSLLLLS,0.579 ± 0.019
13,PPPRFCSLPDHL,0.636 ± 0.049
14,PPPRHSPRPPCI,0.746 ± 0.11
15,PPPRLPPPPHAL,0.795 ± 0.044
16,PPPRLPPPPPPP,0.679 ± 0.048
17,PPPRPAPPSSHS,0.641 ± 0.044
18,PPPRPHPTRLSY,0.576 ± 0.054
19,PPPRPPPLPSPV,0.616 ± 0.0093
20,PPPRPPPPLSHS,0.632 ± 0.04
21,PPPRPRSLTCPA,0.73 ± 0.14
22,PPPRPSPPPSRP,0.684 ± 0.021
23,PPPRSPRSLPPL,0.676 ± 0.017

row,Sequence,protein stability index
1,PPPSCPLSPPRL,0.668 ± 0.0046
2,PPPSLPFPPPHP,0.6827 ± 0.0029
3,PPPSPALPLPPY,0.712 ± 0.019
4,PPPSPFLPPRAP,0.709 ± 0.051
5,PPPSPLLLFPPL,0.645 ± 0.11
6,PPPSPPLPPFSL,0.7056 ± 0.00078
7,PPPSPPLPPPLL,0.696 ± 0.05
8,PPPSPPPPPLLP,0.6508 ± 0.0016
9,PPPSPPPTSNPN,0.742 ± 0.04
10,PPPSPPPYRLPP,0.7 ± 0.016
11,PPPSPPSTTPPL,0.672 ± 0.07
12,PPPSPPTAPAAP,0.713 ± 0.038
13,PPPSPTPGHPQL,0.718 ± 0.044
14,PPPTDSQTTWHP,0.705 ± 0.018
15,PPPTPAPLLVPS,0.598 ± 0.0091
16,PPPTPPPGTYSL,0.579 ± 0.011
17,PPPTPPSPPRPH,0.71 ± 0.068
18,PPPTRPSQAPHL,0.645 ± 0.11
19,PPPTSPRSPVPI,0.697 ± 0.021
20,PPPVPPTPFLTR,0.744 ± 0.11
21,PPPVPTRPSPPP,0.6737 ± 0.0047
22,PPPYDPPRPLPR,0.7209 ± 0.0027

# From the supplement of paper PMC10724198
